Measurements reported in IntAct's records for PubMed 31515488.

B1: Fructose-1,6-bisphosphatase 1 (Homo sapiens), P09467 (parent)
chain: MADQAPFDTDVNTLTRFVMEEGRKARGTGELTQLLNSLCTAVKAISSAVRKAGIAHLYGIAGSTNVTGDQVKKLDVLSNDLVMNMLKSSFATCVLVSEEDKHAIIVEPEKRGKYVVCFDPLDGSSNIDCLVSVGTIFGIYRKKSTDEPSEKDALQPGRNLVAAGYALYGSATMLVLAMDCGVNCFMLDPAIGEFILVDKDVKIKKKGKIYSLNEGYARDFDPAVTEYIQRKKFPPDNSAPYGARYVGSMVADVHRTLVYGGIFLYPANKKSPNGKLRLLYECNPMAYVMEKAGGMATTGKEAVLDVIPTDIHQRAPVILGSPDDVLEFLKVYEKHSAQ
B2: Transcription factor 12 (Homo sapiens), Q99081-3 (parent)
chain: MNPQQQRMAAIGTDKELSDLLDFSAMFSPPVNSGKTRPTTLGSSQFSGSGIDERGGTTSWGTSGQPSPSYDSSRGFTDSPHYSDHLNDSRLGAHEGLSPTPFMNSNLMGKTSERGSFSLYSRDTGLPGCQSSLLRQDLGLGSPAQLSSSGKPGTAYYSFSATSSRRRPLHDSAALDPLQAKKVRKVPPGLPSSVYAPSPNSDDFNRESPSYPSPKPPTSMFASTFFMQDGTHNSSDLWSSSNGMSQPGFGGILGTSTSHMSQSSSYGNLHSHDRLSYPPHSVSPTDINTSLPPMSSFHRGSTSSSPYVAASHTPPINGSDSILGTRGNAAGSSQTGDALGKALASIYSPDHTSSSFPSNPSTPVGSPSPLTGTSQWPRPGGQAPSSPSYENSLHSLKNRVEQQLHEHLQDAMSFLKDVCEQSRMEDRLDRLDDAIHVLRNHAVGPSTSLPAGHSDIHSLLGPSHNAPIGSLNSNYGGSSLVASSRSASMVGTHREDSVSLNGNHSVLSSTVTTSSTDLNHKTQENYRGGLQSQSGTVVTTEIKTENKEKDENLHEPPSSDDMKSDDESSQKDIKVSSRGRTSSTNEDEDLNPEQKIEREKERRMANNARERLRVRDINEAFKELGRMCQLHLKSEKPQTKLLILHQAVAVILSLEQQVRERNLNPKAACLKRREEEKVSAVSAEPPTTLPGTHPGLSETTNPMGHM
partner: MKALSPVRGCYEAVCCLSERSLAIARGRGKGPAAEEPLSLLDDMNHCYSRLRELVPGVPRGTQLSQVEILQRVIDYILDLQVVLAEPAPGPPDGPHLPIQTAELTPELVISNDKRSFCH
B3: Proto-oncogene serine/threonine-protein kinase mos (Homo sapiens), P00540 (parent)
chain: MPSPLALRPYLRSEFSPSVDARPCSSPSELPAKLLLGATLPRAPRLPRRLAWCSIDWEQVCLLQRLGAGGFGSVYKATYRGVPVAIKQVNKCTKNRLASRRSFWAELNVARLRHDNIVRVVAASTRTPAGSNSLGTIIMEFGGNVTLHQVIYGAAGHPEGDAGEPHCRTGGQLSLGKCLKYSLDVVNGLLFLHSQSIVHLDLKPANILISEQDVCKISDFGCSEKLEDLLCFQTPSYPLGGTYTHRAPELLKGEGVTPKADIYSFAITLWQMTTKQAPYSGERQHILYAVVAYDLRPSLSAAVFEDSLPGQRLGDVIQRCWRPSAAQRPSARLLLVDLTSLKAELG
partner: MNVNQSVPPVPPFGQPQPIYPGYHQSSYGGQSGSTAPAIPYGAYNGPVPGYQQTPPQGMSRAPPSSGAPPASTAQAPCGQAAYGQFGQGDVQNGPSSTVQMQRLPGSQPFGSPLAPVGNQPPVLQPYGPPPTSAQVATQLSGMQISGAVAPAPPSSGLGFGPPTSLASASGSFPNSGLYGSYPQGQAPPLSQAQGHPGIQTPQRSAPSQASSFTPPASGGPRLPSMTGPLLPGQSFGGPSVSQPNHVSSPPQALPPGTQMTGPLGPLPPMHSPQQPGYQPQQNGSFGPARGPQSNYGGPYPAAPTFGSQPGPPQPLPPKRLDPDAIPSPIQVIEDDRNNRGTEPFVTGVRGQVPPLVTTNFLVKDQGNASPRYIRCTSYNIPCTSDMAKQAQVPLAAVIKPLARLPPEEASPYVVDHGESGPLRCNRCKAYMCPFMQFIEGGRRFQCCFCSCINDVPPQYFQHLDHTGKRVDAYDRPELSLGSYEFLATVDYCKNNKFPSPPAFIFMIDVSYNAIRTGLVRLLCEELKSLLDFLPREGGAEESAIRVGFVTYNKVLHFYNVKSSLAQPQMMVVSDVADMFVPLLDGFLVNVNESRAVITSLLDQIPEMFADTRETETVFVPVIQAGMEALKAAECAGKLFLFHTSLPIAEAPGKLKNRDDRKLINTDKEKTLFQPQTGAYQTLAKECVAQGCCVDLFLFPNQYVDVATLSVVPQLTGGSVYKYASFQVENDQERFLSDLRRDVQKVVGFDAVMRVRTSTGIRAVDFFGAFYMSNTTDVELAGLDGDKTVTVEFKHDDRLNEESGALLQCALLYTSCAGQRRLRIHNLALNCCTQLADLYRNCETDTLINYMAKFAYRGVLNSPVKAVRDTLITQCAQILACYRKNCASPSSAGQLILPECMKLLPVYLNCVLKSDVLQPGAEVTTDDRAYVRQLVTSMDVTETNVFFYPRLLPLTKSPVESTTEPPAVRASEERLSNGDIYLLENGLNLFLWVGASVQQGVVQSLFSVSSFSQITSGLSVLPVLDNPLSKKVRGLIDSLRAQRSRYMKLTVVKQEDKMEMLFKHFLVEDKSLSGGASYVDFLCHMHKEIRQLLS
B4: Carboxy-terminal domain RNA polymerase II polypeptide A small phosphatase 1 (Homo sapiens), Q9GZU7 (parent)
chain: MDSSAVITQISKEEARGPLRGKGDQKSAASQKPRSRGILHSLFCCVCRDDGEALPAHSGAPLLVEENGAIPKQTPVQYLLPEAKAQDSDKICVVIDLDETLVHSSFKPVNNADFIIPVEIDGVVHQVYVLKRPHVDEFLQRMGELFECVLFTASLAKYADPVADLLDKWGAFRARLFRESCVFHRGNYVKDLSRLGRDLRRVLILDNSPASYVFHPDNAVPVASWFDNMSDTELHDLLPFFEQLSRVDDVYSVLRQPRPGS
B5: LIM/homeobox protein Lhx4 (Homo sapiens), Q969G2 (parent)
chain: MMQSATVPAEGAVKGLPEMLGVPMQQIPQCAGCNQHILDKFILKVLDRHWHSSCLKCADCQMQLADRCFSRAGSVYCKEDFFKRFGTKCTACQQGIPPTQVVRKAQDFVYHLHCFACIICNRQLATGDEFYLMEDGRLVCKEDYETAKQNDDSEAGAKRPRTTITAKQLETLKNAYKNSPKPARHVREQLSSETGLDMRVVQVWFQNRRAKEKRLKKDAGRHRWGQFYKSVKRSRGSSKQEKESSAEDCGVSDSELSFREDQILSELGHTNRIYGNVGDVTGGQLMNGSFSMDGTGQSYQDLRDGSPYGIPQSPSSISSLPSHAPLLNGLDYTVDSNLGIIAHAGQGVSQTLRAMAGGPTSDISTGSSVGYPDFPTSPGSWLDEMDHPPF
partner: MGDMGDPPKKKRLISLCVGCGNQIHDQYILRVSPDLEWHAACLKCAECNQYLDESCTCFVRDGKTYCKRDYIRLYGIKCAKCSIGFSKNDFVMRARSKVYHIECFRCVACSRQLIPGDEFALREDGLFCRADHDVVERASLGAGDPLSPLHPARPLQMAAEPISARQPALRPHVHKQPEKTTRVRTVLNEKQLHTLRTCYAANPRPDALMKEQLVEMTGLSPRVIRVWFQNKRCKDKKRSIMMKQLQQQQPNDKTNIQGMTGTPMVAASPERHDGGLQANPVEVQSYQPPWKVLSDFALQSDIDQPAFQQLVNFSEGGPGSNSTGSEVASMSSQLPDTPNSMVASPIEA
B6: Fibronectin type III and SPRY domain-containing protein 2 (Homo sapiens), A1L4K1 (parent)
chain: MEEESGEELGLDRSTPKDFHFYHMDLYDSEDRLHLFPEENTRMRKVVQAEMANESRGAGDGKAQRDLQEEVDELVHLYGLEDDHELGDEFVDENIPRTGVSEYPPYMMKRRDPAREQRDWRLSGEAAEAEDLGFGGWGSAGQCQDLREAYRYTHGRASEEYECYVIPEEEDEEEAADVFCVTCKTPIRAFQKVFDEHKEHEVIPLNEALESAKDEIHKNMYKLEKQIIEMENFANHLEEVFITVEENFGKQEQNFESHYNEILETLAQKYEEKIQALGEKKKEKLEALYGQLVSCGENLDTCKELMETIEEMCHEEKVDFIKDAVAMADRLGKFLKTKTDVEISAQPEFEDQTLDFSDVEQLMGSINTIPAPSAPVINPQVPNSATGSSVRVCWSLYSDDTVESYQLSYRPVQDSSPGTDQAEFTVTVKETYCSVTNLVPNTQYEFWVTAHNRAGPSPSSERAVYMTAPSPPIIKTKEIRSCEEAVLICWESGNLNPVDSYTVELTQAESPEASGVTESVVGIPTCESVVQLQPGRSYIIYVRALNMGGPSVRSEPATVHTIGSYFRLNKDTCHPWLTISEDGLTAVRSERRTPARELSPSDTHFTRCVAVMGNLIPVRGHHYWEVEVDEHLDYRVGVAFADVRKQEDLGANCLSWCMRHTFASSRHKYEFLHNRTTPDIRITVPPKKIGILLDYEHSKLSFFNVDLSQHLYTFSCQLHEFVHPCFSLEKPGCLKVHNGISMPKHVTFY
partner: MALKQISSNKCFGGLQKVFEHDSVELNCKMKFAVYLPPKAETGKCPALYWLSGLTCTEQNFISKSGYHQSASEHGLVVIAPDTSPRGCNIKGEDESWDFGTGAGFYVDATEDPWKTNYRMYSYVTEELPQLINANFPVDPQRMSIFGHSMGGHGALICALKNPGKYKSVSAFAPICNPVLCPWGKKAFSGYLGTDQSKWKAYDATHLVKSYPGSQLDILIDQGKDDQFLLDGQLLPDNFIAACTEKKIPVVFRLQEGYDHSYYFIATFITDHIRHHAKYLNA

Variants of: B1
Details: with fxr2_human FXR2, P51116

| effect of a mutation on the interaction | Variant |
| --- | --- |
| disrupting interaction strength | G260R |

Variants of: B2
Details: with id3_human ID3, Q02535

| effect of a mutation on the interaction | Variant |
| --- | --- |
| with no effect | R74G |
| with no effect | A155T |
| with no effect | S446F |
| with no effect | Y120C |

Variants of: B3
Details: with sc24c_human SEC24C

| effect of a mutation on the interaction | Variant |
| --- | --- |
| disrupting interaction strength | A123T |
| with no effect | A105S |

Variants of: B4
Details: with mbp_human MBP

| effect of a mutation on the interaction | Variant |
| --- | --- |
| with no effect | A56T |

Variants of: B5
Details: with isl1_human ISL1, P61371

| effect of a mutation on the interaction | Variant |
| --- | --- |
| with no effect | N328S |

Variants of: B6
Details: with estd_human ESD

| effect of a mutation on the interaction | Variant |
| --- | --- |
| with no effect | K333T |
| with no effect | E720K |
